B1: EPHA1: N414A (protein)
parent chain: MERRWPLGLGLVLLLCAPLPPGARAKEVTLMDTSKAQGELGWLLDPPKDGWSEQQQILNGTPLYMYQDCPMQGRRDTDHWLRSNWIYRGEEASRVHVELQFTVRDCKSFPGGAGPLGCKETFNLLYMESDQDVGIQLRRPLFQKVTTVAADQSFTIRDLVSGSVKLNVERCSLGRLTRRGLYLAFHNPGACVALVSVRVFYQRCPETLNGLAQFPDTLPGPAGLVEVAGTCLPHARASPRPSGAPRMHCSPDGEWLVPVGRCHCEPGYEEGGSGEACVACPSGSYRMDMDTPHCLTCPQQSTAESEGATICTCESGHYRAPGEGPQVACTGPPSAPRNLSFSASGTQLSLRWEPPADTGGRQDVRYSVRCSQCQGTAQDGGPCQPCGVGVHFSPGARGLTTPAVHVNGLEPYANYTFNVEAQNGVSGLGSSGHASTSVSISMGHAESLSGLSLRLVKKEPRQLELTWAGSRPRSPGANLTYELHVLNQDEERYQMVLEPRVLLTELQPDTTYIVRVRMLTPLGPGPFSPDHEFRTSPPVSRGLTGGEIVAVIFGLLLGAALLLGILVFRSRRAQRQRQQRQRDRATDVDREDKLWLKPYVDLQAYEDPAQGALDFTRELDPAWLMVDTVIGEGEFGEVYRGTLRLPSQDCKTVAIKTLKDTSPGGQWWNFLREATIMGQFSHPHILHLEGVVTKRKPIMIITEFMENGALDAFLREREDQLVPGQLVAMLQGIASGMNYLSNHNYVHRDLAARNILVNQNLCCKVSDFGLTRLLDDFDGTYETQGGKIPIRWTAPEAIAHRIFTTASDVWSFGIVMWEVLSFGDKPYGEMSNQEVMKSIEDGYRLPPPVDCPAPLYELMKNCWAYDRARRPHFQKLQAHLEQLLANPHSLRTIANFDPRMTLRLPSLSGSDGIPYRTVSEWLESIRMKRYILHFHSAGLDTMECVLELTAEDLTQMGITLPGHQKRILCSIQGFKD
B2: EPHA1: N414A-N478A (protein)
parent chain: B1 parent chain
B3: EPHA1: N478A (protein)
parent chain: B1 parent chain

assay: cell surface biotinylation, streptavidin pull-down, EPHA1 immunoblot; conditions: glycan lost; control: wild type

localisation_or_trafficking, decreases:
B1
B2
B3
